Measurements as given in paper PMC2267159 (BMC Biology, 2008).

Target: the molecule itself
Assay: SDS-PAGE

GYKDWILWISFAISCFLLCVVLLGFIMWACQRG [TMD peptide of HA2 (strain X:31) of influenza virus, unlabeled]: binds.
